In the nanobody polyreactivity screen of Harvey et al. (2022):

Assay: yeast display, Sf9 membrane polyspecificity reagent, FACS + sequencing; frameworks hold sequencing errors
Procedure, shortened: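 Polyreactivity labels are assigned by the sorting gate from which each nanobody was recovered. The gates were low and high (top ~1%), set on anti-HA fluorescence for expression and streptavidin fluorescence for reagent binding. Before sorting, galactose-induced (36–48 hours) yeast display cells were stained for 1 hour at 4 °C with 10% biotinylated, detergent-solubilized Sf9 membrane reagent.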

Row | Sequence | polyreactivity (PSR sort gate)
1 | QVQLEDSGGGLVQAGGSLRLSCAASGITVFYYAMGWSRQAPGKERELVATMSWGGDSTYSADSVKGRFTISRDNAKNTVYLQMNSLKPEDTAVYYCAARYWFFRFWYDYWGQGTQVTVSS | high polyreactivity
2 | QVQLEDSGGGLVQAGGSLRLSCAASGSTFPLNAMGWYRQAPGKERELVASINFGGGTTYYADSVKGRFTISRDNAMNTVYLQMNSLKPEDTAVYYCAADVYQEFGYWGQGTQVTVSS | high polyreactivity
3 | QVQLEDSGGGLVQAGGSLRLTCAASGRIFYPNVIGRNRQAPGKERELVAAIRTSGTGTYYADSVKGRFTISRDNAMNNVYLQMNSQKTQDTAGYYCAADYGYNRYWWWDWSYEYGYEYWGQGTQVTVSS | high polyreactivity
4 | QVQLEEKRRGLVQAGGSLRLSCASSGRTFVTNAMGRYRQAPGKERELVAAISSSGGSTYYADSVKGRFTISRDNAMNTVYLQMNSLKPEDTAVYYCAVAGQTKGQYDYWGQGTQVTVSS | low polyreactivity
5 | QVQLEESAGGLVQAGGSLRLSCAASGRIFTGSNVMVWYRQSPGKETEFVAVINSGGGSTYYADSVKGRFTISRDNAKNTVFLQMNSLKPEDTAVYYCAADVGGWGYYYWGQGTQVTVSS | low polyreactivity
6 | QVQLEESAGGLVQAGGSLRLSCAASGSIFRVYGMGWYRQAPGKVTELVASITYRGGNTYYADSVKGRFTISRDNAKNTVYVQMNSLKPEDTAVFDCARSGYQKVGGFRSDYWGQGTEVTVSS | low polyreactivity
7 | QVQLEESCGGLVQAGGSLRLSCAASGSIFGTYAMGLYRHAPGKEREFVADISGIGTSTYYADSVKGRFTISRDNAKNTVYLQMNSLKPEDTAVYYCAAESFDTVEYDYWGQGTQVTVSS | low polyreactivity
8 | QVQLEESGAGLVQARGSLRLSCAASGRTFIWNAMGWYRQAPGKERELVAAISSRGGRTYYADSVKGRFTISRDNAKNTVYLQMNILKPEDTAVYYCAAYYITFIGRGYGYWGQGTQVTVSS | high polyreactivity
9 | QVQLEESGGALFQAGGSIRLSCAASGYTFDAYAMGWYRQAPGKERELVADINYSVGSTTYADSVKGRFTISRDNAKNTVYLQMNSLKTEDTAVYYCAAQGTWYAWDYDYWGQGTQVTVSS | low polyreactivity
10 | QVQLEESGGGIVQAGGSLRLSCAASGGIFGTYAMGWYRQAPRKERELVASISSDTSTTYADSVKGRFTISRDNAKNTVYLQMNSLKAEDTAVYYCAAGSDYDDDYWGQGTQVTVSS | high polyreactivity
11 | QVQLEESGGGIVQAGGSLRLSCAASGRTCSNYAMGWNRQAPGKERQLVASIRSSGTSTYYADSVKGRFTISRDIAKNTVYLKMNSLKPEDTAVYYCAKRYFTWSSTYNYWGQGTQVTVSS | high polyreactivity
12 | QVQLEESGGGIVQAGGSLRLSCAASGSTFNYYAMGWYRQAPGKERELVAAINSNGGSTYYADSVKGRFTISRDNAKNTVYLQMNSPKPEDTAVYLCAADISPYDYDYWGQGTQVTVSS | high polyreactivity
13 | QVQLEESGGGIVQAGGSLRLSCAASGSTFVLNAMGWYRKAPGKERELVAAITRDGRTYYADSVKGRFTISRDNAKNTVYLQMNSLKPEDTAVYYCARPARYSYGDGYWGQGTLVTVSS | low polyreactivity
14 | QVQLEESGGGIVQAGGSLRLSCASSGFIFKAYAMVWSRQAPGKERDLVAVITGSSGRTYADSVKGRFTISRDNAKNTVYLQMNSLKPEDTAVYYCAADLRKSKYRYWRRYDYWGQGTQVTVSS | high polyreactivity
15 | QVQLEESGGGIVQAGGTLRLTCAASGRIYATNAMGWSRQAPGKERELVATITRSAGRTYYADSVKGRFTISGDNAKNTVYLQMNSLKPEDTAVYYCAASYWDTEPGYREYDYWGQGTEVTVSS | low polyreactivity
16 | QVQLEESGGGLEQAGGSLRLSCAATGSIFNFYAMAWYIRAPGKERELVAAITRSGGSTYYADSVKGRFTISRDNAKNTVYLQMNSLIPEDTAVYYCSAASRKRTSREPLDYWGQGTQVTVSS | high polyreactivity
17 | QVQLEESGGGLFQAGGSLRLSCAASGTTQNGYTMGWYRQAPGKEREMVATINRGSSTHYADSVKGRFTISRDNAKNTVYLQMNSLKPEDTAVYYCNKRYPLGTEYYYLGQGTQVTVSS | high polyreactivity
18 | QVQLEESGGGLGQAGGSLRLSCAASGSTFTVNGKGWYRQPPGKERELVASITWSGGSTYYADSVKGRFTLSRDNAKYTVYLQMNSLKPEDTAVYYCAADEKLYITGYDYWGQGTQVTVSS | low polyreactivity
19 | QVQLEESGGGLLKEGGSLRLSCAASGFTFDGYAMGWYRQAPGKERELVAVITSGGSTKYADSVKGRFTISRDNAKNTVYLQMNSLKPEVTAVYNCNVVGGRYLYSAYDYWGHGTQVTVSS | low polyreactivity
20 | QVQLEESGGGLVKAGGSIRLSCAASGLIFYSYAMVWYRHAPGKERELVAVITRSGGNTNYADSVKGRFTISRDNAKNTVYLQMNSRKPEDTAVYYCATRGIWKKVPYYYWGQGTQVTVSS | high polyreactivity
21 | QVQLEESGGGLVKAGGSLSLSCAASGRTFYSYAMGWYRQAPGKERELVAAISAGGSTYYADSVQGRFTSSRDNAMNTLNLQMTSLKPEDTAVYYCAATYSYYYARYHYWGQGTQVTVSS | high polyreactivity
22 | QVQLEESGGGLVQAGASHRLSCAASGITFYWYAMGSYRQAPGKERELVAGISQSGSLTYYADSVKRRFTISRDNAKNTVYLQMKSLKPEDSAVYYCAARVRWSPSRTFEYWGQGSQVTVSS | high polyreactivity

Row | Sequence | polyreactivity (PSR sort gate)
23 | QVQLEESGGGLVQAGASLRLSCAASGRTIAHYAMGWYRQAPGKERELVAAITRGGGTYYADSVKGRFTISRDNAKHSVYLQMNSLKPEDTAVYYCAADHSRYGYPAKTMDYWGQCTQVTVSS | low polyreactivity
24 | QVQLEESGGGLVQAGASLRLSCDASGSIFKKYAMGWYRPAPGKEWELVPAITRGTYYADSVKGRFTISRDNAKNTVYLQMNSLKPEDTAVYYCNREFWGRGYYRVRGEYDYWGQGTQVTVSS | low polyreactivity
25 | QVQLEESGGGLVQAGGRLRLSCAASGIIFEYYAMGGYRQAPGTERELVAAIFSGGSTYYADSVKGRFTISGDNAKNNVYLQMNSLKPEDTAVYYCAADYFAWGQGTQVTVSS | high polyreactivity
26 | QVQLEESGGGLVQAGGRLRLSSAASGRTFMPNGMGWYRQAPGKERELVAAISWRGGSTYYADSVKGRFTISRDNAKNTVYLQMNSLKPEDTAVYYCNARVSRQYDYWGQGTEVTVSS | low polyreactivity
27 | QVQLEESGGGLVQAGGSHRLICAASGSTFEYYAMGWYRQAPGKERELVAAINGIGGSTTYADSVKGRFTISRDTAKYTVYLQMNSLKPEDTAVYYCNADVARSKSQASAYDYWGQGTQVNVSS | low polyreactivity
28 | QVQLEESGGGLVQAGGSHRLSCAASGSTIYAYTMGWYRQAPGKERELVARISGRGGSTYYADSVKGRFTISRDNAKNTVYLQMNSLKQEDTAVYYCAARRKFDYWGQGTQVTVSS | high polyreactivity
29 | QVQLEESGGGLVQAGGSLPLSCASSGRIFCVYAMGWYRQAPGKESELVATITSGGSTSYADSVKGRFTISRDNANYTVYLLMNSLKPEDTAVYYCNGPYSFFWQQMNYWGHGTQVTVSS | low polyreactivity
30 | QVQLEESGGGLVQAGGSLRISCSASGFNFRYYTMGWYRQAPGKERELVAAITSRGGSTYYADSLKGRFTISRDIAKNTVYLQMNSLKPEDTAVYYCATTSWGYEYWGQGTEVTVSS | high polyreactivity
31 | QVQLEESGGGLVQAGGSLRLICAASGIIFYVNAMGWYRQAPGKERELVAAITFGGDSTYYADSVKGRFTISRDNAKNTVYLQMNSLKPEDTAVYYCATDGDPAYPEMEYWGQGTQVTVSS | low polyreactivity
32 | QVQLEESGGGLVQAGGSLRLICAASGRTCGSNTMGWYRQAPGKERELVAASTISCGSTYYADSVKGRFTFSRDNAKNTVYLQMNSLKPDVTALDYCATRLWGQGGGRTTSYMYYWGQGTQVTVSS | high polyreactivity
33 | QVQLEESGGGLVQAGGSLRLSCAACGSIFDNYAMGWYRQAPGKERELVAVISKRGGRTYYADSVKGRFTISRDNAKNTVYLQMNSLKPEDTAVYYCANGGQGSTPTSAWAKYDYWVQGTQVTVSS | high polyreactivity
34 | QVQLEESGGGLVQAGGSLRLSCAASGFIFAFNAMGWYRQAPGKEREMVATISWNDGGTYYADSVKGRFTISRDNAKNTVYLEMNSLKPEDTAVYYCAADWYLYLDDKYDYWGQGTQVTVSS | low polyreactivity
35 | QVQLEESGGGLVQAGGSLRLSCAASGFIFDSYAMGWYRQAPGKERELVAAISWSGGRTYYADSVKGRFTISRDNAKNTVYLQMNSLKPEDTAVYYCNVLVHSLSGRKYDYWGQGTQVTVSS | high polyreactivity
36 | QVQLEESGGGLVQAGGSLRLSCAASGFTFYYYTMGWYRQAPGKERELVAAITWRGGSTNYADSVKGRFTISRDNAKNTVYLQMNSLKPEEPAVYYCAAVTYWFWPGMDYWGQGTQVTVSS | low polyreactivity
37 | QVQLEESGGGLVQAGGSLRLSCAASGFTLEYYAMGWYRKAPGKERELVAVITESDGNTYYADSVKGRFTISRDNAKNTVYLQMNSLKPEDTAVYYCAAEYRDGYRFSYDYWGQGTQVTVSS | low polyreactivity
38 | QVQLEESGGGLVQAGGSLRLSCAASGGIFIFYAMGWYRQAPGKERELVAAISNVSSTNYADSVKGRFTISRDNAKNSVYLQMNSLKPEDTAVYYCNAVGVPSEYYSWGHGTQVTVSS | low polyreactivity
39 | QVQLEESGGGLVQAGGSLRLSCAASGGIFWYNAMGWYRQAPGKERELVADISSSGITYYADSVKGRFTISRDNAKNTVYLQMNSLKPEDTAVYYCAADSTTRPGLRVYDDYDYWGQGTQVTVSS | low polyreactivity
40 | QVQLEESGGGLVQAGGSLRLSCAASGGTFLAYALGWYRQAPGKERELVATITSGGSTNYADSVKGRFTISRDNAKNTVYLQMNSLKPEDTAVYYCAASGRDFIAESPYDYWGQGTQVTVSS | low polyreactivity
41 | QVQLEESGGGLVQAGGSLRLSCAASGIIIRYYAMGWYRQAPRKERELVDSITARSGSTYYADSVKGRFSISRDYAKNTVYFQMNSLKPEDTAVYYCAKSGKPARYYYWGQGTQVTVSS | high polyreactivity
42 | QVQLEESGGGLVQAGGSLRLSCAASGITFSLYVMGWFRPAPGKESELVATISFNVASTYADSVKGRFTISRVNAKNTVYLQMYSLTPEDTAVYYCNADTYWYRDSRYDYCGQGTQVTVSS | low polyreactivity
43 | QVQLEESGGGLVQAGGSLRLSCAASGITIWGYTMGWYRQAPGKERELVAAITSTGSTYYADSVKGRFTISRDNAKNTVYLQMNSLKPEDTSVYYCAATRGSSEYYYWGQGTQVTVSS | low polyreactivity
